The chains are these.
B1: Arginase, O25949 (parent)
chain: MILVGLEAELGASKRGTDKGVRRLREALSATHGDVIKGMQTITQERCVLYKEFRYAKNFEDYYLFCKENLIPCMKEVFEKKEFPLILSSEHANMFGIFQAFRSVHKDKKIGILYLDAHADIHTAYDSDSKHIHGMPLGMVLNRVRSGFNRMSESEEKAWQKLCSLGLEKGGLEIDPKCLVYFGVRSTEQSERDVIRELQIPLFSVDAIRENMQEVVQKTKESLKAVDIIYLSLDLDIMDGKLFTSTGVRENNGLSFDELKQLLGLLLESFKDRLKAVEVTEYNPTVSIKHNNEEEKQVLEILDLIINSCKIKDKKHSFARSY

Variants of B1 are the subject of this data set. Conditions: Helicobacter pylori (strain ATCC 700392 / 26695); pH 7.2; Thermal; CD; Tris-HCl 20 mM; transition: 2; reversible: yes; structure 4G3H; whole UniProt chain shown.

Several values for one entry are separate records, joined by “and”; a condition that tells them apart may be missing. Identical values can stand only once.

As a reminder, the Tm is the temperature at the midpoint of the melting transition. Take E156A: the midpoint of thermal melting (Tm) was found to be 59 °C and the “change of melting temperature, mutant - wild type (higher = more stable)” value (“change of melting temperature, mutant” for short) was -9 °C.
As to W159F, the Tm is 64.8 °C and 59.9 °C; the “change of melting temperature, mutant” value is -5.2 °C and -8.1 °C.
As for W159A, the Tm is 51 °C and the “change of melting temperature, mutant” value was -17 °C.
For the variant D126A, the Tm worked out at 61 °C and the “change of melting temperature, mutant” value was -7 °C.
Regarding K157A, the Tm was 57.7 °C and the “change of melting temperature, mutant” value is -10.3 °C.
On to S164A, for which the Tm was determined as 70.7 °C and the “change of melting temperature, mutant” value came to 0.7 °C.
For E153A, in that order: 69.8 °C and -0.2 °C.
Consider Q160A, for which the Tm is 64.4 °C and 62.8 °C; the “change of melting temperature, mutant” value was -5.6 °C and -5.2 °C.
For the variant L162A, the “change of melting temperature, mutant” value was -2.7 °C and -7 °C.

These data come from FireProtDB (doi:10.1021/bi301421v).
